B1: TAL6 peptide No. 9 of Table 1, SVLAALIGI (peptide)
peptide: SVLAALIGI
notes: also called TAL6 93-101
B2: TAL6 peptide No. 11 of Table 1, HIVEWNVSL (peptide)
peptide: HIVEWNVSL
notes: also called TAL6 154-162
B3: TAL6 peptide No. 6 of Table 1, MLLPAFVFI (peptide)
peptide: MLLPAFVFI
notes: also called TAL6 60-68
B4: TAL6 peptide No. 5 of Table 1, LLMLLPAFV (peptide)
peptide: LLMLLPAFV
notes: also called TAL6 58-66
B5: TAL6 peptide No. 1 of Table 1, CIGHSLVGL (peptide)
peptide: CIGHSLVGL
notes: also called TAL6 9-17
B6: TAL6 peptide No. 8 of Table 1, MLSSVLAAL (peptide)
peptide: MLSSVLAAL
notes: also called TAL6 90-98
B7: TAL6 peptide No. 2 of Table 1, SLVGLALLC (peptide)
peptide: SLVGLALLC
notes: also called TAL6 13-21
B8: TAL6 peptide No. 14 of Table 1, ALGGIEFIL (peptide)
peptide: ALGGIEFIL
notes: also called TAL6 168-176
B9: TAL6 peptide No. 15 of Table 1, CLIQVINGV (peptide)
peptide: CLIQVINGV
notes: also called TAL6 177-185
B10: TAL6 peptide No. 7 of Table 1, AMLSSVLAA (peptide)
peptide: AMLSSVLAA
notes: also called TAL6 89-97
B11: TAL6 peptide No. 4 of Table 1, IVGGGLLML (peptide)
peptide: IVGGGLLML
notes: also called TAL6 53-61
B12: TAL6 peptide No. 16 of Table 1, VINGVLGGI (peptide)
peptide: VINGVLGGI
notes: also called TAL6 181-189
B13: TAL6 peptide No. 13 of Table 1, SILLALGGI (peptide)
peptide: SILLALGGI
notes: also called TAL6 164-172
B14: TAL6 peptide No. 12 of Table 1, SLFSILLAL (peptide)
peptide: SLFSILLAL
notes: also called TAL6 161-169
B15: TAL6 peptide No. 3 of Table 1, ALLCIAANI (peptide)
peptide: ALLCIAANI
notes: also called TAL6 18-26
B16: TAL6 peptide No. 10 of Table 1, GLAEGPLCL (peptide)
peptide: GLAEGPLCL
notes: also called TAL6 114-122

Target: His-tag fused human HLA-A2 heavy chain (His-HLA-A2) with His-Tag fused human β2-microglobulin (His-β2) (human)
Test: MHC-peptide complex formation assay: refolding of His-HLA-A2, His-β2m and peptide, sandwich ELISA (W6/32 capture, anti-β2m detection), relative to positive control peptide

Binder	Relative binding (%)
B1	158
B2	91.1
B3	155
B4	134
B5	93.3
B6	163
B7	126
B8	113
B9	26.3
B10	115
B11	43.4
B12	59.1
B13	51.8
B14	42.6
B15	53.6
B16	72.4

Source: patent US20110038894A1 (NATIONAL HEALTH RESEARCH INSTITUTES, published 2011)
